Experimental data: publication PMC7092869 (Biochemical and Biophysical Research Communications, 2018)

Molecular target: the molecule itself
Test: SEC + AUC

B1: HCoV-229E fusion core (FC1), HR1-linker-HR2 single chain (domain or fragment)
chain: ENQKILAASFNKAMTNIVDAFTGVNDAITQTSQALQTVATALNKIQDVVNQQGNSLNHLTSQLRQNFQLVPRGSGGSGGSGGLEVLFQGPDLVVEQYNQTILNLTSEISTLENKSAELNYTVQKLQTLIDNINSTLVDLKWL
- stoichiometry N: 3
